Assay results reported in article PMC12216690, “MORC2 is a phosphorylation-dependent DNA compaction machine” (Nature Communications, 2024).

Key:
[1] = target: the molecule itself; assay: SEC-MALS; XBridge Protein BEH SEC column; 50 mM HEPES pH 8.0, 300 mM NaCl, 1 mM TCEP; 20 µl of protein at 1 mg/ml injected; no nucleotide
[2] = target: the molecule itself; assay: cryo-EM structure; 2 µM protein with AMP-PNP, with or without three-fold molar excess of 60 bp DNA; C2 symmetry imposed
[3] = target: the molecule itself; assay: atomic force microscopy; dry AFM, 10 nM MORC2 in 40 mM Tris pH 7.5, 50 mM NaCl, 1 mM MgCl2, 0.5 mM TCEP, with 1 mM ATP, with 1 mM AMP-PNP or without ATP, on poly-O-lysine treated mica; particle volumes fitted with two gaussians
[4] = target: the molecule itself; assay: number and brightness analysis (fluorescence fluctuation spectroscopy); live MORC2 knockout HEK293T cells with low expression of MORC2-meGFP, nucleus, 37 degrees; without or with 0.5 µg/mL neocarzinostatin for 1 hour

B1: full-length MORC2 (MORC2^WT) (natural protein, human, UniProt Q9Y6X9 1-1032, looked up)
chain: MAFTNYSSLNRAQLTFEYLHTNSTTHEFLFGALAELVDNARDADATRIDIYAERREDLRGGFMLCFLDDGAGMDPSDAASVIQFGKSAKRTPESTQIGQYGNGLKSGSMRIGKDFILFTKKEDTMTCLFLSRTFHEEEGIDEVIVPLPTWNARTREPVTDNVEKFAIETELIYKYSPFRTEEEVMTQFMKIPGDSGTLVIIFNLKLMDNGEPELDIISNPRDIQMAETSPEGTKPERRSFRAYAAVLYIDPRMRIFIHGHKVQTKRLSCCLYKPRMYKYTSSRFKTRAEQEVKKAEHVARIAEEKAREAESKARTLEVRLGGDLTRDSRVMLRQVQNRAITLRREADVKKRIKEAKQRALKEPKELNFVFGVNIEHRDLDGMFIYNCSRLIKMYEKVGPQLEGGMACGGVVGVVDVPYLVLEPTHNKQDFADAKEYRHLLRAMGEHLAQYWKDIAIAQRGIIKFWDEFGYLSANWNQPPSSELRYKRRRAMEIPTTIQCDLCLKWRTLPFQLSSVEKDYPDTWVCSMNPDPEQDRCEASEQKQKVPLGTFRKDMKTQEEKQKQLTEKIRQQQEKLEALQKTTPIRSQADLKKLPLEVTTRPSTEEPVRRPQRPRSPPLPAVIRNAPSRPPSLPTPRPASQPRKAPVISSTPKLPALAAREEASTSRLLQPPEAPRKPANTLVKTASRPAPLVQQLSPSLLPNSKSPREVPSPKVIKTPVVKKTESPIKLSPATPSRKRSVAVSDEEEVEEEAERRKERCKRGRFVVKEEKKDSNELSDSAGEEDSADLKRAQKDKGLHVEVRVNREWYTGRVTAVEVGKHVVRWKVKFDYVPTDTTPRDRWVEKGSEDVRLMKPPSPEHQSLDTQQEGGEEEVGPVAQQAIAVAEPSTSECLRIEPDTTALSTNHETIDLLVQILRNCLRYFLPPSFPISKKQLSAMNSDELISFPLKEYFKQYEVGLQNLCNSYQSRADSRAKASEESLRTSERKLRETEEKLQKLRTNIVALLQKVQEDIDINTDDELDAYIEDLITKGD
modifications: came phosphorylated from insect cells at multiple sites; top 6 hits S725, S730, S739, S743, S777, S779
notes: MORC2, human, UniProt Q9Y6X9, full length (1-1032); No cleavage of the tag is described; the SPR and single-molecule methods speak of StrepII-tagged MORC2; also called MORC2 WT (1-1032); MORC2^Apo; source: Sf9 insect cells, purified (Strep-Tactin, HiTrap Q, Superose 6 SEC)
stoichiometry N [1]: 2

B2: full-length MORC2 ATPase-dead mutant (MORC2^S87A) (natural protein, human, UniProt Q9Y6X9 1-1032, looked up)
chain: MAFTNYSSLNRAQLTFEYLHTNSTTHEFLFGALAELVDNARDADATRIDIYAERREDLRGGFMLCFLDDGAGMDPSDAASVIQFGKAAKRTPESTQIGQYGNGLKSGSMRIGKDFILFTKKEDTMTCLFLSRTFHEEEGIDEVIVPLPTWNARTREPVTDNVEKFAIETELIYKYSPFRTEEEVMTQFMKIPGDSGTLVIIFNLKLMDNGEPELDIISNPRDIQMAETSPEGTKPERRSFRAYAAVLYIDPRMRIFIHGHKVQTKRLSCCLYKPRMYKYTSSRFKTRAEQEVKKAEHVARIAEEKAREAESKARTLEVRLGGDLTRDSRVMLRQVQNRAITLRREADVKKRIKEAKQRALKEPKELNFVFGVNIEHRDLDGMFIYNCSRLIKMYEKVGPQLEGGMACGGVVGVVDVPYLVLEPTHNKQDFADAKEYRHLLRAMGEHLAQYWKDIAIAQRGIIKFWDEFGYLSANWNQPPSSELRYKRRRAMEIPTTIQCDLCLKWRTLPFQLSSVEKDYPDTWVCSMNPDPEQDRCEASEQKQKVPLGTFRKDMKTQEEKQKQLTEKIRQQQEKLEALQKTTPIRSQADLKKLPLEVTTRPSTEEPVRRPQRPRSPPLPAVIRNAPSRPPSLPTPRPASQPRKAPVISSTPKLPALAAREEASTSRLLQPPEAPRKPANTLVKTASRPAPLVQQLSPSLLPNSKSPREVPSPKVIKTPVVKKTESPIKLSPATPSRKRSVAVSDEEEVEEEAERRKERCKRGRFVVKEEKKDSNELSDSAGEEDSADLKRAQKDKGLHVEVRVNREWYTGRVTAVEVGKHVVRWKVKFDYVPTDTTPRDRWVEKGSEDVRLMKPPSPEHQSLDTQQEGGEEEVGPVAQQAIAVAEPSTSECLRIEPDTTALSTNHETIDLLVQILRNCLRYFLPPSFPISKKQLSAMNSDELISFPLKEYFKQYEVGLQNLCNSYQSRADSRAKASEESLRTSERKLRETEEKLQKLRTNIVALLQKVQEDIDINTDDELDAYIEDLITKGD
notes: MORC2, human, UniProt Q9Y6X9, full length with S87A; Only the ATPase domain is modelled in the cryo-EM map; also called S87A mutant; source: Sf9 insect cells, purified (Strep-Tactin, HiTrap Q, Superose 6 SEC)
binding result [2]: binds

B3: ATP-binding-deficient mutant MORC2 N39A (MORC2^N39A) (natural protein, human, UniProt Q9Y6X9 1-1032, looked up)
chain: MAFTNYSSLNRAQLTFEYLHTNSTTHEFLFGALAELVDAARDADATRIDIYAERREDLRGGFMLCFLDDGAGMDPSDAASVIQFGKSAKRTPESTQIGQYGNGLKSGSMRIGKDFILFTKKEDTMTCLFLSRTFHEEEGIDEVIVPLPTWNARTREPVTDNVEKFAIETELIYKYSPFRTEEEVMTQFMKIPGDSGTLVIIFNLKLMDNGEPELDIISNPRDIQMAETSPEGTKPERRSFRAYAAVLYIDPRMRIFIHGHKVQTKRLSCCLYKPRMYKYTSSRFKTRAEQEVKKAEHVARIAEEKAREAESKARTLEVRLGGDLTRDSRVMLRQVQNRAITLRREADVKKRIKEAKQRALKEPKELNFVFGVNIEHRDLDGMFIYNCSRLIKMYEKVGPQLEGGMACGGVVGVVDVPYLVLEPTHNKQDFADAKEYRHLLRAMGEHLAQYWKDIAIAQRGIIKFWDEFGYLSANWNQPPSSELRYKRRRAMEIPTTIQCDLCLKWRTLPFQLSSVEKDYPDTWVCSMNPDPEQDRCEASEQKQKVPLGTFRKDMKTQEEKQKQLTEKIRQQQEKLEALQKTTPIRSQADLKKLPLEVTTRPSTEEPVRRPQRPRSPPLPAVIRNAPSRPPSLPTPRPASQPRKAPVISSTPKLPALAAREEASTSRLLQPPEAPRKPANTLVKTASRPAPLVQQLSPSLLPNSKSPREVPSPKVIKTPVVKKTESPIKLSPATPSRKRSVAVSDEEEVEEEAERRKERCKRGRFVVKEEKKDSNELSDSAGEEDSADLKRAQKDKGLHVEVRVNREWYTGRVTAVEVGKHVVRWKVKFDYVPTDTTPRDRWVEKGSEDVRLMKPPSPEHQSLDTQQEGGEEEVGPVAQQAIAVAEPSTSECLRIEPDTTALSTNHETIDLLVQILRNCLRYFLPPSFPISKKQLSAMNSDELISFPLKEYFKQYEVGLQNLCNSYQSRADSRAKASEESLRTSERKLRETEEKLQKLRTNIVALLQKVQEDIDINTDDELDAYIEDLITKGD
notes: MORC2, human, UniProt Q9Y6X9, full length with N39A; also called N39A mutant; source: Sf9 insect cells, purified (Strep-Tactin, HiTrap Q, Superose 6 SEC)
binding result [3]: binds

B4: monomeric eGFP (meGFP)-tagged MORC2 (natural protein, human, UniProt Q9Y6X9 1-1032, looked up)
chain: MAFTNYSSLNRAQLTFEYLHTNSTTHEFLFGALAELVDNARDADATRIDIYAERREDLRGGFMLCFLDDGAGMDPSDAASVIQFGKSAKRTPESTQIGQYGNGLKSGSMRIGKDFILFTKKEDTMTCLFLSRTFHEEEGIDEVIVPLPTWNARTREPVTDNVEKFAIETELIYKYSPFRTEEEVMTQFMKIPGDSGTLVIIFNLKLMDNGEPELDIISNPRDIQMAETSPEGTKPERRSFRAYAAVLYIDPRMRIFIHGHKVQTKRLSCCLYKPRMYKYTSSRFKTRAEQEVKKAEHVARIAEEKAREAESKARTLEVRLGGDLTRDSRVMLRQVQNRAITLRREADVKKRIKEAKQRALKEPKELNFVFGVNIEHRDLDGMFIYNCSRLIKMYEKVGPQLEGGMACGGVVGVVDVPYLVLEPTHNKQDFADAKEYRHLLRAMGEHLAQYWKDIAIAQRGIIKFWDEFGYLSANWNQPPSSELRYKRRRAMEIPTTIQCDLCLKWRTLPFQLSSVEKDYPDTWVCSMNPDPEQDRCEASEQKQKVPLGTFRKDMKTQEEKQKQLTEKIRQQQEKLEALQKTTPIRSQADLKKLPLEVTTRPSTEEPVRRPQRPRSPPLPAVIRNAPSRPPSLPTPRPASQPRKAPVISSTPKLPALAAREEASTSRLLQPPEAPRKPANTLVKTASRPAPLVQQLSPSLLPNSKSPREVPSPKVIKTPVVKKTESPIKLSPATPSRKRSVAVSDEEEVEEEAERRKERCKRGRFVVKEEKKDSNELSDSAGEEDSADLKRAQKDKGLHVEVRVNREWYTGRVTAVEVGKHVVRWKVKFDYVPTDTTPRDRWVEKGSEDVRLMKPPSPEHQSLDTQQEGGEEEVGPVAQQAIAVAEPSTSECLRIEPDTTALSTNHETIDLLVQILRNCLRYFLPPSFPISKKQLSAMNSDELISFPLKEYFKQYEVGLQNLCNSYQSRADSRAKASEESLRTSERKLRETEEKLQKLRTNIVALLQKVQEDIDINTDDELDAYIEDLITKGD
notes: MORC2, human, UniProt Q9Y6X9; Probably the full-length cDNA; also called MORC2-meGFP; pBacMam-MORC2-meGFP-StrepII; source: expressed in MORC2 knockout HEK293T cells, in live cells
fold increase of dimers upon neocarzinostatin [4]: ~2 fold

B5: MORC2 phosphodead (MORC2^PD) mutant (natural protein, human, UniProt Q9Y6X9 1-1032, looked up)
chain: MAFTNYSSLNRAQLTFEYLHTNSTTHEFLFGALAELVDNARDADATRIDIYAERREDLRGGFMLCFLDDGAGMDPSDAASVIQFGKSAKRTPESTQIGQYGNGLKSGSMRIGKDFILFTKKEDTMTCLFLSRTFHEEEGIDEVIVPLPTWNARTREPVTDNVEKFAIETELIYKYSPFRTEEEVMTQFMKIPGDSGTLVIIFNLKLMDNGEPELDIISNPRDIQMAETSPEGTKPERRSFRAYAAVLYIDPRMRIFIHGHKVQTKRLSCCLYKPRMYKYTSSRFKTRAEQEVKKAEHVARIAEEKAREAESKARTLEVRLGGDLTRDSRVMLRQVQNRAITLRREADVKKRIKEAKQRALKEPKELNFVFGVNIEHRDLDGMFIYNCSRLIKMYEKVGPQLEGGMACGGVVGVVDVPYLVLEPTHNKQDFADAKEYRHLLRAMGEHLAQYWKDIAIAQRGIIKFWDEFGYLSANWNQPPSSELRYKRRRAMEIPTTIQCDLCLKWRTLPFQLSSVEKDYPDTWVCSMNPDPEQDRCEASEQKQKVPLGTFRKDMKTQEEKQKQLTEKIRQQQEKLEALQKTTPIRSQADLKKLPLEVTTRPSTEEPVRRPQRPRSPPLPAVIRNAPSRPPSLPTPRPASQPRKAPVISSTPKLPALAAREEASTSRLLQPPEAPRKPANTLVKTASRPAPLVQQLSPSLLPNSKSPREVPSPKVIKTPVVKKTEAPIKLAPATPSRKRAVAVADEEEVEEEAERRKERCKRGRFVVKEEKKDSNELADAAGEEDSADLKRAQKDKGLHVEVRVNREWYTGRVTAVEVGKHVVRWKVKFDYVPTDTTPRDRWVEKGSEDVRLMKPPSPEHQSLDTQQEGGEEEVGPVAQQAIAVAEPSTSECLRIEPDTTALSTNHETIDLLVQILRNCLRYFLPPSFPISKKQLSAMNSDELISFPLKEYFKQYEVGLQNLCNSYQSRADSRAKASEESLRTSERKLRETEEKLQKLRTNIVALLQKVQEDIDINTDDELDAYIEDLITKGD
notes: MORC2, human, UniProt Q9Y6X9, full length with six serine to alanine mutations in the CTD; Only the ATPase domain is modelled in the cryo-EM maps; also called MORC2^PD-DNA; source: Sf9 insect cells, purified (Strep-Tactin, HiTrap Q, Superose 6 SEC)
binding result [2]: binds
